Results as given in patent publication US20070071744A1 (published 2007).

Biological target: T1, human glycoprotein VI (GPVI), native, on human platelets (human, UniProt Q9HCN6 21-339)
T1 sequence (looked up): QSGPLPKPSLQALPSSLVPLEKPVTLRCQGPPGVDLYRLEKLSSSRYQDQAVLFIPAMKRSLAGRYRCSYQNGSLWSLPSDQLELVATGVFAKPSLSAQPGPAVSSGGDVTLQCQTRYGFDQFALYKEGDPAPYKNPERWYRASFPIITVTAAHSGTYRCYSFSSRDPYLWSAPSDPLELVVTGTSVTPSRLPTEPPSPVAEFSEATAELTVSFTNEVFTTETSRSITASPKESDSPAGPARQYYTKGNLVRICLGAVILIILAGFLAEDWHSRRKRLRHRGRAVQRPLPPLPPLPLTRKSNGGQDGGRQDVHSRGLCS
Assay: cell-based or functional assay

B1: hGP 5C4 Fab (Fab, V domains shown)
VH: EVKLQESGGGLVQPGRSLKLSCTASGFTFSDYFMSWVRQAPTRGLEWVASISSGGASAYWRDSVKGRFTISRDNAKSALYLQMDSLRSEDTATYFCARGELDFDYWGQGVMVAVSS
VL: ADPNSTLLSASVGDRVTLNCTASQNVYKNLAWYQQKLGEAPRLLLYSANSQTGIPSRFSGSGSGPDFTLTISSLQPEDVASYFCQQYYSGNTFGAGTKLELKR
IC50 of inhibition of collagen-induced (3 µg/ml) human platelet aggregation ex vivo: 0.12 µg/mL
